{
  "source": "paper PMC5352116",
  "binders": {"B1": {"name": "CASPASE 8, Q14790 1-479 (enzyme)", "chain": "MDFSRNLYDIGEQLDSEDLASLKFLSLDYIPQRKQEPIKDALMLFQRLQEKRMLEESNLSFLKELLFRINRLDLLITYLNTRKEEMERELQTPGRAQISAYRVMLYQISEEVSRSELRSFKFLLQEEISKCKLDDDMNLLDIFIEMEKRVILGEGKLDILKRVCAQINKSLLKIINDYEEFSKERSSSLEGSPDEFSNGEELCGVMTISDSPREQDSESQTLDKVYQMKSKPRGYCLIINNHNFAKAREKVPKLHSIRDRNGTHLDAGALTTTFEELHFEIKPHDDCTVEQIYEILKIYQLMDHSNMDCFICCILSHGDKGIIYGTDGQEAPIYELTSQFTGLKCPSLAGKPKVFFIQACQGDNYQKGIPVETDSEEQPYLEMDLSSPQTRYIPDEADFLLGMATVNNCVSYRNPAEGTWYIQSLCQSLRERCPRGDDILTILTEVNYEVSNKDDKKNMGKQMPQPTFTLRKKLVFPSD"}},
  "molecular_target": "Death Receptor 5 (DR5) (human (endogenous in MCF-10A-Tr)), O14763",
  "assay": "co-IP; DISC analysis: MCF-10A-Tr cells untreated or treated with QC, TRAIL or TRAIL (10 ng/mL, 3 h) then QC (2.5 uM, 48 h); RIPA lysate, pre-cleared with sepharose-4B beads, immunoprecipitated with anti-DR5 antibody at 4°C overnight; western blot",
  "details": "remark: other sources report otherwise",
  "data": [
    {"binder": "B1", "values": [
      {"measurement": "fold level in the DISC (anti-DR5 immunoprecipitate), TRAIL+QC treated against untreated cells", "value": 7, "unit": "fold"}
    ]}
  ]
}
